Values quoted from earlier work as cited in article PMC5322387.
Each block holds one substance with its values, some of them ahead of it.

Tests used:
E2 L2 L2 (Homo sapiens) [1] = target: E2 L2 L2 (Homo sapiens) (UniProt P10515); assay: ITC
[2] = target: E3BP L3 L3 (Homo sapiens) (UniProt O00330); assay: ITC
E2 L2 L2 (Homo sapiens) [3] = target: E2 L2 L2 (Homo sapiens) (UniProt P10515); assay: gel filtration

Chain of E2 L2 L2 (Homo sapiens) (P10515 218-294): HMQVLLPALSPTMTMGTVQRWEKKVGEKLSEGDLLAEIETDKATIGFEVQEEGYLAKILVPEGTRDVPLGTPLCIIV
Chain of PDK1 (Q15118 29-436): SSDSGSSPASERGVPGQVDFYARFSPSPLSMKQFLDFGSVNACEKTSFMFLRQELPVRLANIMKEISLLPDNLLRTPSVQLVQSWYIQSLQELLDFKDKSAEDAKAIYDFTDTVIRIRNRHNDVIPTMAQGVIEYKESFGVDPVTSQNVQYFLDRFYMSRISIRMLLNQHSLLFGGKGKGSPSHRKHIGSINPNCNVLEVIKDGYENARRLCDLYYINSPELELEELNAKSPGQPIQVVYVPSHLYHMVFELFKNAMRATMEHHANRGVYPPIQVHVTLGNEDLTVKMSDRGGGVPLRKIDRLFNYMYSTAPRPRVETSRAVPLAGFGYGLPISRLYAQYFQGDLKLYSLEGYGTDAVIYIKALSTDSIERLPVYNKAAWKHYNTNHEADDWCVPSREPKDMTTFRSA
Chain of PDK3 (Q15120 2-406): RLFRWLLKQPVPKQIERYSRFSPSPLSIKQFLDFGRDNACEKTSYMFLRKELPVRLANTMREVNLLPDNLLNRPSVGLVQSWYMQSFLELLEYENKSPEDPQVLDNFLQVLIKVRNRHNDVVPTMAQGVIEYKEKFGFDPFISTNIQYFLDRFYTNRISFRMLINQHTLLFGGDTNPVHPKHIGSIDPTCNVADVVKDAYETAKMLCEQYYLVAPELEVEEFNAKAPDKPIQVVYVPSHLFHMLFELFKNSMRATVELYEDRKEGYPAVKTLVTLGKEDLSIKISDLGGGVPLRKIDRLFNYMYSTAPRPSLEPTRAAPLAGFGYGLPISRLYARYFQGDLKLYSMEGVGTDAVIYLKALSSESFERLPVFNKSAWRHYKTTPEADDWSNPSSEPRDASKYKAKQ
Chain of PDK4 (Q16654 2-411): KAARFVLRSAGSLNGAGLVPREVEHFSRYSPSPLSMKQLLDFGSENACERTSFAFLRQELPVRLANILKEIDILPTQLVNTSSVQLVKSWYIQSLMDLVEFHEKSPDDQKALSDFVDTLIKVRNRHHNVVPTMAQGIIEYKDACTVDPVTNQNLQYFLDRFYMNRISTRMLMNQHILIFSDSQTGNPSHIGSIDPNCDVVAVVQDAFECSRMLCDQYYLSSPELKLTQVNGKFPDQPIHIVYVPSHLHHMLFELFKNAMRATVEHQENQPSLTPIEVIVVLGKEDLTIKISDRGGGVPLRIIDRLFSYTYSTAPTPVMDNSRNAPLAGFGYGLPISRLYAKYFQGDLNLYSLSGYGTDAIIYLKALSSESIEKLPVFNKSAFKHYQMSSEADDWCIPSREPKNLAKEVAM
Chain of E3BP L3 L3 (Homo sapiens) (O00330 56-132): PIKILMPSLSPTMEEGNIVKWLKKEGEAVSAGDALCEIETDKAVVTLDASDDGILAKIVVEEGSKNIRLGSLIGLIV

Kd (E2 L2 L2 (Homo sapiens) [1]): 1.17 µM
Substance: PDK3 (from UniProt Q15120)

Kd [2]: 5 µM
Substance: PDK4 (from UniProt Q16654)

Kd (E2 L2 L2 (Homo sapiens) [3]): 10 µM
Substance: PDK1 (from UniProt Q15118)
